In publication PMC8631008 (FEBS letters, 2021):

Target: T1, Pleiotrophin, wild type (mature, residues 1 to 136) (human, UniProt P21246 33-168)
T1 sequence (looked up): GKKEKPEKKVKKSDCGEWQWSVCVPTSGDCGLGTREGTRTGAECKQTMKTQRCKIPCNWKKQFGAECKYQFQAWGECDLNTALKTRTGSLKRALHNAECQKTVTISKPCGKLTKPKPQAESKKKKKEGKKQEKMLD
Experiment: NMR titration

Kd: ~30 µM
Binder: GGGEDGDTDDDGDDDDDDRGSDGLSIHK [PTPRZ peptide (residues G1414 to K1441 of receptor type protein tyrosine phosphatase ζ)]
